One assay deals with T1, Doc (UniProt Q06259 1-126).
T1 sequence: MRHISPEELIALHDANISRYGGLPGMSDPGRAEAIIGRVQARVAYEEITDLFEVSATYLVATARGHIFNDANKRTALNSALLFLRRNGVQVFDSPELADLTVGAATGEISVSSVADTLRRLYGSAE
Briefly: ITC. (In general: Isothermal titration calorimetry measures the heat released or taken up as one component is titrated into another.)

Assay [1] concerns the target T2, Doc (wild type), toxin of the doc/phd toxin/antitoxin module (UniProt Q06259 1-126).
T2 sequence: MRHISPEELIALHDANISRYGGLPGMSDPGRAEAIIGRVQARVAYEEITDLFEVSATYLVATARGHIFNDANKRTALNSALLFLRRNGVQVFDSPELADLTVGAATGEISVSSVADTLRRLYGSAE
Briefly: ITC.

B1: Phd^52-73 (domain or fragment)
chain: LDAEFASLFDTLDSTNKELVNR
For the molecule B1, the binding result with Doc was “binds”.

B2: antitoxin domain of Phd (residues 52-73) (peptide)
chain: LDAEFASLFDTLDSTNKELVNR
For B2, the binding result in assay [1] is “binds”.
